According to publication PMC7092852 (Biochemical and Biophysical Research Communications, 2005):

Molecular target: the molecule itself
Experiment: SEC

B1: 2-helix protein (native single chain NHR + CHR of syncytin, amino acids 349-445) (domain or fragment)
chain: not shown
stoichiometry N: 3
